Where a chain is given by its changes, count along the chain named. Names and notes keep the numbering of the source.
Tests used:
[1] = biological target: T1, human FcγRIIb constitutively expressed on MDCK cells (human, UniProt P31994 43-310); test: cell-based or functional assay
T1 sequence (looked up): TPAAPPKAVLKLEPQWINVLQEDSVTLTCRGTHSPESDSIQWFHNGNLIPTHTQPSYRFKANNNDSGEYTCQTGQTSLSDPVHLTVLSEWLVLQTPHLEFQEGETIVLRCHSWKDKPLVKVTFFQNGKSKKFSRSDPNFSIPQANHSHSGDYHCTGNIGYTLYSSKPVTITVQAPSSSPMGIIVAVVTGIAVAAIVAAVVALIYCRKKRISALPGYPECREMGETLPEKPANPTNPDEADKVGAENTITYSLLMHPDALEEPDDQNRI

[2] = biological target: T2, soluble mouse FcγRII, His-tagged (mouse, UniProt P08101 30-210, limits assumed); test: SPR, mouse FcγRII captured via His-tag, antigen-antibody complex injected, pH 7.4, 25 C
T2 construct: Captured on the chip through an anti-His antibody
T2 sequence (looked up): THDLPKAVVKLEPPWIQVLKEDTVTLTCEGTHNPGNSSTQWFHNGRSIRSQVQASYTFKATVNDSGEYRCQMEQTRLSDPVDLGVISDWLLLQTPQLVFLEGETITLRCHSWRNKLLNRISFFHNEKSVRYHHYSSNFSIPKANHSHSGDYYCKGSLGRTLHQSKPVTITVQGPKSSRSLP
In short: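 Biacore T200; His-tagged soluble FcγRII captured on an anti-His antibody chip, then antibody–antigen complexes injected. Running buffer 20 mM ACES, 150 mM NaCl, 1.2 mM CaCl₂, 0.05% Tween 20, pH 7.4; regeneration with 10 mM glycine-HCl pH 1.5; all at 25° C.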

[3] = biological target: T3, human FcγRIIaR extracellular domain with C-terminal His-tag (human, UniProt P12318 34-217); test: SPR, antibody captured, FcγR analyte
T3 construct: also called human FcgRIIaR; FcγRIIa (type R)
T3 chain: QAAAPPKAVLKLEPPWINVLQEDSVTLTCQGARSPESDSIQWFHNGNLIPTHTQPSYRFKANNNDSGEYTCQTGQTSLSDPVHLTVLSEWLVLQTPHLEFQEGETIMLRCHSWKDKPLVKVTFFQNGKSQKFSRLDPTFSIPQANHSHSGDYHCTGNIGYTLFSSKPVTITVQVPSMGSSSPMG

[4] = biological target: T4, cynomolgus monkey FcγRIIIaS extracellular domain with C-terminal His-tag (cynomolgus monkey, UniProt Q8SPW2 21-206 at identity 1.00)); test: SPR, antibody captured, FcγR analyte
T4 construct: also called cyno FcgRIIIaS; cynoFcγRIIIaS
T4 chain: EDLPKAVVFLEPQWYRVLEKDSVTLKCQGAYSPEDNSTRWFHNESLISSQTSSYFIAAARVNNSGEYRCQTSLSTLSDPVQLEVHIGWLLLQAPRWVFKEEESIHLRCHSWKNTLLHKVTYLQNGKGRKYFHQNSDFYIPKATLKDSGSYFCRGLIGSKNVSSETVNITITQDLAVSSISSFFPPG

[5] = biological target: T5, human FcγRIIIaV extracellular domain with C-terminal His-tag (human, UniProt P08637 17-208); test: SPR, KD(SG1)/KD(variant)
T5 construct: also called human FcgRIIIaV
T5 sequence (P08637 17-208 F176V): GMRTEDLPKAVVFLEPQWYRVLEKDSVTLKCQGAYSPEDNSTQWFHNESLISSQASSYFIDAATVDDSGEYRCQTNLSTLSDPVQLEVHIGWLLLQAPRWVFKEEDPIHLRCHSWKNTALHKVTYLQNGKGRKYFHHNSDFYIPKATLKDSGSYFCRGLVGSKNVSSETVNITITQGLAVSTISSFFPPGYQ

[6] = biological target: T6, human FcγRIIb extracellular domain with C-terminal His-tag (human, UniProt P31994 43-217); test: SPR, KD(SG1)/KD(variant)
T6 construct: also called human FcgRIIb
T6 sequence: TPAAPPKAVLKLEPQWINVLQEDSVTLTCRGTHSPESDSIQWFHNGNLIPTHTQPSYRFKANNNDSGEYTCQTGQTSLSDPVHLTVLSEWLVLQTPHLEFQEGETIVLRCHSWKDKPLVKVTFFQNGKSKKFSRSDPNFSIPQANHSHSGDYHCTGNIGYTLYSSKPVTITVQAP

[7] = biological target: T3, human FcγRIIaR extracellular domain …; test: SPR, KD(SG1)/KD(variant)
[8] = biological target: T7, cynomolgus monkey FcγRIIb extracellular domain with C-terminal His-tag (cynomolgus monkey); test: SPR, KD(SG1)/KD(variant)
T7 construct: also called cyno FcgRIIb; cynoFcγRIIb
T7 chain: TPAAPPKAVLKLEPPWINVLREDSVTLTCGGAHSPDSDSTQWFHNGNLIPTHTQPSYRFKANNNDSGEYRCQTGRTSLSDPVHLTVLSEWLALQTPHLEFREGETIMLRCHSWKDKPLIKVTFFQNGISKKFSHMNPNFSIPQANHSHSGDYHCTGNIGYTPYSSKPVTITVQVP

[9] = biological target: T4, cynomolgus monkey FcγRIIIaS …; test: SPR, KD(SG1)/KD(variant)
[10] = biological target: T5, human FcγRIIIaV extracellular domain …; test: SPR, KD(SG1)/KD(variant); remark: listed apart in the source
Description: (§1) The kinetic analysis of interactions between these antibodies and FcγR was carried out using BIACORE® T200 or BIACORE® 4000 (GE Healthcare). HBS-EP+ (GE Healthcare) was used as the running buffer, and the measurement temperature was set to 25° C. […] After the measurement, the antibody captured on the chip was washed off by allowing reaction with 10 mM glycine-HCl, pH1.5 and 25 mM NaOH so that the chip was regenerated and used repeatedly. The sensorgrams obtained as measurement results were analyzed by the 1:1 Langmuir binding model using the BIACORE® Evaluation Software to calculate the binding rate constant ka (L/mol/s) and dissociation rate constant kd (1/s), and the dissociation constant KD (mol/L) was calculated from these values. […] Regarding such interactions, KD values were calculated using the following 1:1 binding model described in BIACORE® T100 Software Handbook BR1006-48 Edition AE.

[11] = biological target: T8, cynomolgus monkey FcγRIIa2 extracellular domain with C-terminal His-tag (cynomolgus monkey); test: SPR, KD(SG1)/KD(variant)
T8 construct: also called cyno FcgRIIa2; cynoFcγRIIa2
T8 chain: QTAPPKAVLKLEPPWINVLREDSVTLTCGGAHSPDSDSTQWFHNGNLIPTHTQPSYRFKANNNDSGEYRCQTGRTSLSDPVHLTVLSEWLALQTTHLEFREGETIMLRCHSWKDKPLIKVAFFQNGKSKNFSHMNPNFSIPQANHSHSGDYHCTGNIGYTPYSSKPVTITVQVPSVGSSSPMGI
Description: as §1

[12] = biological target: T4, cynomolgus monkey FcγRIIIaS …; test: SPR, KD(SG1)/KD(variant)
Description: as §1

[13] = biological target: T9, cynomolgus monkey FcγRIIa1 extracellular domain with C-terminal His-tag (cynomolgus monkey); test: SPR, KD(SG1)/KD(variant)
T9 construct: also called cyno FcgRIIa1; cynoFcγRIIa1
T9 chain: T8 chain with T95P, A121T, K127I, S128A, N130K, N135D, Q142R
Description: as §1

[14] = biological target: T10, human FcγRIIIaV extracellular domain with C-terminal His-tag (human, UniProt P08637 17-208); test: SPR (Biacore), KD of SG1 divided by KD of variant
T10 construct: also called human FcgRIIIaV
T10 sequence (P08637 17-208 F176V): as the sequence (P08637 17-208 F176V) above

[15] = biological target: T11, cynomolgus monkey FcγRIIb extracellular domain with C-terminal His-tag (cynomolgus monkey); test: SPR (Biacore), KD of SG1 divided by KD of variant
T11 construct: also called cyno FcgRIIb; cynoFcγRIIb
T11 chain: T7 chain

[16] = biological target: T12, cynomolgus monkey FcγRIIIaS extracellular domain with C-terminal His-tag (cynomolgus monkey, UniProt Q8SPW2 21-206 at identity 1.00)); test: SPR (Biacore), KD of SG1 divided by KD of variant
T12 construct: also called cyno FcgRIIIaS; cynoFcγRIIIaS
T12 chain: T4 chain

[17] = biological target: T13, human FcγRIIaR extracellular domain with C-terminal His-tag (human, UniProt P12318 34-217); test: SPR (Biacore), KD of SG1 divided by KD of variant
T13 construct: also called human FcgRIIaR; FcγRIIa (type R)
T13 chain: T3 chain

B1: MS1032LO06-SG1 (antibody, human IgG1, kappa)
heavy: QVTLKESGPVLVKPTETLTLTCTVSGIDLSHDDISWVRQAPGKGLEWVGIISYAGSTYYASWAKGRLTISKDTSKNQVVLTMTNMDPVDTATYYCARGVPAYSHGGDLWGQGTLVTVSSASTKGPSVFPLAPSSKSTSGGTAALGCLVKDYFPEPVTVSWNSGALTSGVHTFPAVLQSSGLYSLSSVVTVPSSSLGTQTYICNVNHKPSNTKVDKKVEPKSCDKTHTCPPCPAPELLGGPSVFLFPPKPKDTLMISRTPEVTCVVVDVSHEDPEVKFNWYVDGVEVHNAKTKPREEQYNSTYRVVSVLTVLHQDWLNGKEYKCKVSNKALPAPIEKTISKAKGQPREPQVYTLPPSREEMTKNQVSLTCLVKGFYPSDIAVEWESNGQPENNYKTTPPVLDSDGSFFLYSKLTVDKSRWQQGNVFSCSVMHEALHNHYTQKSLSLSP
light: DIVMTQSPATLSLSPGERATLSCTSSQSVYHANWLSWFQQKPGQPPKLLIYWASTLAYGVPSRFSGSGSGTDFTLTISSLQPEDAATYYCAGGYGGGRYAFGQGTKVEIKRTVAAPSVFIFPPSDEQLKSGTASVVCLLNNFYPREAKVQWKVDNALQSGNSQESVTEQDSKDSTYSLSSTLTLSKADYEKHKVYACEVTHQGLSSPVTKSFNRGEC
notes: also called M103205H795-SG1; copies: 2 + 2
With B1 the “celluar uptake (labelled human latent myostatin taken up as antigen-antibody complex)” value [1] was 1 relative to SG1 = 1.00, the “biacore IC binding (relative, SG1 = 1.00)” value [2] was 1 relative to SG1 and the Kd [3] was 10 µM. For the same binder, the Kd [4] was 0.26 µM.

B2: M103205H795-MY531/M103202L889-SK1 (antibody, human IgG1, kappa, name in EU numbering)
heavy: QVTLKESGPVLVKPTETLTLTCTVSGIDLSHDDISWVRQAPGKGLEWVGIISYAGSTYYASWAKGRLTISKDTSKNQVVLTMTNMDPVDTATYYCARGVPAYSHGGDLWGQGTLVTVSSASTKGPSVFPLAPSSKSTSGGTAALGCLVKDYFPEPVTVSWNSGALTSGVHTFPAVLQSSGLYSLSSVVTVPSSSLGTQTYICNVNHKPSNTKVDKKVEPKSCDKTHTCPPCPAPEWLTGPSVFLFPPKPKDTLMISRTPEVTCVVVDVSDEDPEVKFNWYVDGVEVHNAKTKPREEQYNSTYRVVSVLTVLHQDWLNGKEYKCKVSNTALPKPIEKTISKAKGQPREPQVYTLPPSREEMTKNQVSLTCLVKGFYPSDIAVEWESNGQPENNYKTTPPVLDSDGSFFLYSKLTVDKSRWQQGNVFSCSVMHEALHNHYTQKSLSLSP
light: B1 light
notes: copies: 2 + 2
For B2, the “KD fold (SG1 = 1)” value [5] was 0.28 fold and the “KD fold (SG1 = 1)” value [6] was 3.1 fold.

B3: M103205H795-MY532/M103202L889-SK1 (antibody, human IgG1, kappa, name in EU numbering)
heavy: B2 heavy with S241V, T328K
light: B1 light
notes: copies: 2 + 2
For B3, the “KD fold (SG1 = 1)” value [5] was 0.48 fold and the “KD fold (SG1 = 1)” value [7] was 5.8 fold.

B4: M103205H795-MY533/M103202L889-SK1 (antibody, human IgG1, kappa, name in EU numbering)
heavy: B2 heavy with S241V, Q297L, T328K
light: B1 light
notes: copies: 2 + 2
B4 was tested, and the “KD fold (SG1 = 1)” value [8] was 7.7 fold, the “KD fold (SG1 = 1)” value [6] was 4.8 fold and the “KD fold (SG1 = 1)” value [9] was 0.33 fold.

B5: M103205H795-MY534/M103202L889-SK1 (antibody, human IgG1, kappa, name in EU numbering)
heavy: B2 heavy with W236L, S241V, Q297L, T328K
light: B1 light
notes: copies: 2 + 2
In the case of B5, the “KD fold (SG1 = 1)” value [5] is reported as 0.15 fold, the “KD fold (SG1 = 1)” value [7] is reported as 5.8 fold and the “KD fold (SG1 = 1)” value [9] is reported as 0.22 fold.

B6: M103205H795-MY537/M103202L889-SK1 (antibody, human IgG1, kappa, name in EU numbering)
heavy: B2 heavy with A233G, S241V, Q297L, T328K
light: B1 light
notes: copies: 2 + 2
With B6 the “KD fold (SG1 = 1)” value [8] was 5.6 fold and the “KD fold (SG1 = 1)” value [9] was 0.24 fold.

B7: MS1032LO06-PK57 (antibody, human IgG1, kappa)
heavy: B2 heavy with W236L, T238N, Q313R, T328K, N386R, D415R
light: B1 light
notes: MY201 with Q311R/N384R/D413R; also called MS103205H795-PK57; M103205H795-MY57; copies: 2 + 2
For B7, the “KD fold (SG1 = 1)” value [10] was 0.07 fold, the “KD fold (SG1 = 1)” value [11] was 2 fold and the “KD fold (SG1 = 1)” value [12] was 0.06 fold. The “KD fold (SG1 = 1)” value [13] was 2.3 fold, the Kd [3] was 22 µM and the Kd [4] was 4.3 µM.

B8: M103205H795-MY514 / M103202L889-SK1 (antibody)
heavy: B2 heavy with W236L, S241V, S300L, T328K
light: B1 light
notes: 'S258L' copied as printed, probably S298L
For B8, the “KD fold (SG1 = 1)” value [14] was 0.09 fold, the “KD fold (SG1 = 1)” value [15] was 2.6 fold and the “KD fold (SG1 = 1)” value [16] was 0.05 fold. For the same binder, the “KD fold (SG1 = 1)” value [17] was 6.9 fold.

Reference: patent US20250076311A1 (Chugai, published 2025)
